The data set is described as follows: yeast display, Sf9 membrane polyspecificity reagent, FACS + sequencing; frameworks hold sequencing errors. Summed up:
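Galactose-induced (36–48 hours) yeast carrying a synthetic nanobody display library were exposed to 10% biotinylated, detergent-solubilized Sf9 membrane reagent at 4 °C for 1 hour. FACS followed streptavidin microbead enrichment, using low and high (top ~1%) gates for expression (anti-HA) and reagent binding (streptavidin). Colony PCR, MiSeq 2 × 250 sequencing and CDR-length filtering followed. Labels for polyreactivity reflect the gate of origin.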
Take “QDKLVDSGGGLVQAGGSLLLSCAASGFIFLNNAMGWYRQAPGKQRELVAAITWSGGSTYYADSVKGRFTISRDNAKNTVYLQMNSLKPVDTAVYYCAADGWLYYGVGFYSSRRDYYWGQGTQVTVSS”: the “polyreactivity (PSR sort gate)” value is listed as “low polyreactivity”.

Take “QVQLVESGGGLVQAGGSLRLSCAASGSTFYRNGMGWYRQAPGKERELVAGIDRSGGSTYYADSVKGRFTISRDNAKNTVYLQMNSLKPEDTAVYYCAAQNGYYPQHDYWGQGTQVTVSS”: the “polyreactivity (PSR sort gate)” value is given as “high polyreactivity”.

As to “QDQLEESGGGLVQAGGSLRLSSAASGGTLYLYDMGWYRQAPGKERELVAAISYNGGSTYADSVKGRFTISRDNAKNTFYLQMNSLNPEDSAVYYCAADRPPRGLGGYWGQGTLVTVSS”, the “polyreactivity (PSR sort gate)” value is on record as “low polyreactivity”.

As to “QVQLVESGGGLVQAGGSLRLSCAASGSIFAFYAMGLYRQAPGKERELVAAITASGGRTYYADSVKGRFTISRDIAKNTVYLQMNSLKPEDTAVYYCAAERQTIYIGLYGYPGWSQYNYWGQGTQVTVSS”, the “polyreactivity (PSR sort gate)” value is listed as “low polyreactivity”.

On to “QVQLVESGGGLVQAGGSLRLSCAASGYTFNPYVMGWYSQAPGKERELVAAISSGGSTSYADSVKGRFTISRDNAKNTVYLQMNSLKPEDTAVYYCAADWSYYYSRNYESDYWGQGTQVTVSS”, for which the “polyreactivity (PSR sort gate)” value is “low polyreactivity”.

Take “QVQLVESGGGLVQAGGSLRLSCAASGRNFYTYTMGWYRQAPGKERELVAAISKSGTSTYYADSVKGRFTISRDNAKNTVYLQMTSLKPEDSAVYYCAARAYYARFLMGYWGQGTQVTVSS”: the “polyreactivity (PSR sort gate)” value is reported as “high polyreactivity”.

For “QVQLVESGGGLVQAGGSLRLSCAASGSIFRFYPLGWYRQSPGKERELVAGITWSGASTYYADSVKGRFTISRDNAKNTVYLQMNSLKPEDTAVYYCAKLYRLDGFYYWGQGTQVTVSS”, the “polyreactivity (PSR sort gate)” value is “high polyreactivity”.

As for “QVQLVESGGGLVQAGGSLRLSCAASGRIFVVYAMGWYRQAPGKERELVAAITGGGRTNYADSVKGRFTISRDNAKNTVYLQKNSLKPGDSAVYYCAAGTRSDARRYYYWGQGTQVTVSS”, the “polyreactivity (PSR sort gate)” value is “low polyreactivity”.

As for “QVQLVESGGGLVQAGGSLRLSCAASGSIFSIYAMGWYRQAPGKERDFVASITVTDGSTYYADSVKGRFTISRDNAKNTVYLQMNSLKPEDTAVYYCYADGWYALYEWLAVSGYYWGQGTQVTVSS”, the “polyreactivity (PSR sort gate)” value is reported as “low polyreactivity”.

As for “QVQLVESGGGLVQAGGSLRLSCAASGSIFYDYAMGWYSQEPGKERELVAAISSSGITYYADSVKGRFTISRDNAKTTVYLQMNSLKPEDTAVYYCNARSYLRDYDYWGQGTQVTVTS”, the “polyreactivity (PSR sort gate)” value is on record as “high polyreactivity”.

Regarding “QVQLVESGGGLVQAGGSLRLSCAASGSTFQPYAMGWYRQAAGNEREFVATISGSAGSTNYADSVKGRFTTSRDNAKSTVYLQMNSLKPEDTALYYCNALYRYLYRSGDYWGQGNQVTVSS”, the “polyreactivity (PSR sort gate)” value is recorded as “low polyreactivity”.

Turning to “QVQLVESGGGLVQAGGSLRLSCASSGRTFGLYDMGWYRQAPGKERELVAGITRRGGRTYYADSVKGRFTISRDNAKNPVELLMHCRKPEDTAVYYCNKVVTRWNQRWRYSEGNYWGQGTQVTVSS”, the “polyreactivity (PSR sort gate)” value is “high polyreactivity”.

With “QVQLVESGAGLVQAGGSLRLSCATYGITISYYAMVWYGQGPGKVSELVAAISTSGGSTYYADSVKGRFTFSRDNAKNTVYLQMNSLKPEDTAVFYCAAVYTTGGYTGLEYWGQGTQVTVSS”, the “polyreactivity (PSR sort gate)” value is recorded as “high polyreactivity”.

Regarding “QVQLVESGGGLVQAGGSLRLSCAASGSTFGRYAMGWYRQAPGKERELFAAISWSGGSTYYADSVKGRFTISRDNAKNTVYLQMNSLKPEDTAVYYCNKAGIYIYGSYYWGQGTQVTVSS”, the “polyreactivity (PSR sort gate)” value was “high polyreactivity”.

On to “QVQLEESGGGLVQAGGSLRLSCAASGFITSHYAMGWYIQAPGKERELVATISSGGSTYADSVKGRFTISRDNAKNTVYLQMNSLKPEDTAVYYCNVRLQGTYRAGVRGDYWGQVTQVTVSS”, for which the “polyreactivity (PSR sort gate)” value is on record as “high polyreactivity”.

On to “QVQLVESGGGLVQAGGSLRLSCAASGSIFYFNAMGWYRQAPGKDRELVAAITYNGGSTRYADSVKGRFTISRDNAKNTVYLQMNSLKPEDTAVYYCAARAKYGPEDGYWGQGTQVTVSS”, for which the “polyreactivity (PSR sort gate)” value was “high polyreactivity”.

Regarding “QVQLVESGGGLVQAGGSLRLSCAASGSTFRNNAMGWYRQAPGKERELVAAISWIGGDTYYADSVKGRFTISRDNAKNTVYLQMNSLKPEDTAVYYCNRDFVYWPWFKFDYWGQGTQVTVSS”, the “polyreactivity (PSR sort gate)” value is listed as “low polyreactivity”.

Turning to “QDQLVESGGGLVQAGGSLRLSCAASGSTFSKNTMGWYRQAPGKERELVAAITTRGSSTYYADSVKGRFTISRDNAKNTVYLQMNSLKPEDTAVYYCNAPYRVTGGRYRWYDYWGQGTQVTVSS”, the “polyreactivity (PSR sort gate)” value is listed as “high polyreactivity”.

Regarding “QVQHVESGGGLVQAGGSLRLSCAASGFTFTRYAMGWYRQAPGKERELVAAISRGGTTYADSVKGRFTISRDNAKNTVYLQMNSLKPEDTAVYYCNRLRYGYPQEFGYWGQGTQVTVSS”, the “polyreactivity (PSR sort gate)” value is on record as “high polyreactivity”.

Take “QVQLVESGGGLVQAGGSLRLSCAASGIIFYTYVMGWYRQAPGKEREFVAGISTSGGRTDYADSVKGRFTISRDNAKNTVYLQMNSLKPEDTAVYYCNADYWQWYSYWYDYWGQGTQVTVSS”: the “polyreactivity (PSR sort gate)” value was “high polyreactivity”.

In the case of “QVQLVESGGGLVQAGGSLRLSCAASGFIRTAYAMGWYRQAPGKERELVAAIDWIGGSTYYADSVKGRFTISRDNAKNTVYLQMNSLKPEDTAVYYCAAVRYYWGQGTQVTVSS”, the “polyreactivity (PSR sort gate)” value is reported as “low polyreactivity”.

For the sequence “QVQLVESGGGLVQAGGSLRLICAASGSTFRYYAMVLYRQAPGKERELVAAISGTGSTYYADSVKGRFTISRDNAKNTVYLQMNSLKPEDTAVYYCAAYPRASQRYNYWGQGTQVTVSS”, the “polyreactivity (PSR sort gate)” value is “high polyreactivity”.

As to “QVQLVESGGGLVQAGGSLRLSCAASGFIFSVYAMGWYRQAPGKERELVAVISTSGGRTYYADSVKGRFTISRDNAKNTVYLQMNSLKPEDTAVYYCAADGFQYTLGNYYWGQGTQVTVSS”, the “polyreactivity (PSR sort gate)” value is listed as “high polyreactivity”.

As for “QVQLVDSGGGLVQAGGSLRLSCAASGSIIYDYPMGWYRQAPGKEREFVASIDWRGDSTYYADSVKGRFTNSRDNAKNTVYLQMNRLKPEDTAVYYCAADRSYQYYFYEDYGYDYWGQGTQVTVSS”, the “polyreactivity (PSR sort gate)” value is listed as “low polyreactivity”.

Turning to “QVQLVESGGGLVQAGGSLRLSCAASGSIVYPYAMGWNRQAPGKERELVAAITGHGGSTYYADSVKGRFTISRDNAKNTVYLQMNSMKPEDTAVYYCAAYRVVYSDAYYYWGQGTQVTVSS”, the “polyreactivity (PSR sort gate)” value is on record as “low polyreactivity”.

In the case of “QVQLVESGGGLVQAGGSLRLSCAASGRIHTYAMGWYRQAPGKERELVAAISFSGGSTYYADSVKGRFTISRDNAKNTVYLQMNSLKPEDTAVYYCAAGGGPNYFVDYGIRYDNWGQGTQVTVSS”, the “polyreactivity (PSR sort gate)” value is listed as “low polyreactivity”.

As to “QDHLVESGGGLVQAGGSLRLSCAASGITFVYYYMGWYRTAPGKERELVAAISSDGSTYYADSVKGRFTISRDNAKNTVYLQMNSLKPEDTAVYYCNAVAIVPYFYVVYDIFDYWGQVTQVTVSS”, the “polyreactivity (PSR sort gate)” value is “low polyreactivity”.

Turning to “QVQLVESGGGLVQAGGSLRLSCAPSGRMFVFYTMGWYRPAPGKESELVAYINSGGSTYYADSVKGRFTISRDNAKNSVYLQMNSLKPEDTAVYYCAAGPCRGPDSRWRYKYDYWGQGTQVTVSS”, the “polyreactivity (PSR sort gate)” value is “high polyreactivity”.

“QVQLVESGGCLVQAGGSLRLSCAASGLIFPSYAMGWYRQAPGKERELVAAITFSGSDTNYADSVKGRFTISRDNAKNTVYLQLYSLIPEDTAVYYCAAAYFDFWGWLHDYWGQGTQVTVSS”: the “polyreactivity (PSR sort gate)” value was “low polyreactivity”.

Regarding “QVQLVESGGGLGQAGGSLRLSCAASGSIFPEYVMGWNRQAPGKERELVAAISWSGGSTYYADSVKGRFTISRDNAKNPVFLQMNSLKPEDTAVYYCNRVPSWRIDYDYWGQGTQVTVSS”, the “polyreactivity (PSR sort gate)” value is on record as “low polyreactivity”.

Source of the values: the nanobody polyreactivity screen of Harvey et al. (2022).
